The text below walks through data of patent publication US20230045418A1 (AJOU UNIVERSITY INDUSTRY ACADEMIC COOPERATION FOUNDATION, published 2023).

The target in assay [1] is T1, cell-surface HPVE11-19/HLA-A*02:01 complex (HPV16; human).
T1 construct: whole, on cells
The experiment in a line: flow cytometry, MDA-MB-231 pulsed with HPVE11-19 peptide, Alexa647 anti-mouse Fc.

Assay [2] deals with T2, cell-surface CMVP495-503/HLA-A*02:01 complex (human cytomegalovirus (CMV); human).
T2 construct: whole, on cells; also called CMV pp65 peptide complex
The experiment in a line: flow cytometry, MDA-MB-231 pulsed with 4 µM CMVP495-503 peptide, Alexa647 anti-mouse Fc.
Procedure: After completion of pulsing, the cells were washed with a FACS buffer and then centrifuged at 1300 rpm for 3 minutes to remove the supernatant. […] After washing each sample with 1 ml of a FACS buffer, a F(ab′)2 antibody that specifically recognizes Alexa647 (red fluorescence)-conjugated mouse Fc was diluted 1:600 in 100 μl of a FACS buffer, followed by reaction at 4° C. for 30 minutes.

Assay [3] addresses T2, cell-surface CMVP495-503/HLA-A*02:01 …. Nature of the assay: flow cytometry, 500 nM antibody on MDA-MB-231 cells pulsed with 50 µM peptide.
Assay [4] shares this target. The experiment in a line: flow cytometry, cells pulsed with 50 µM CMVP495-503 peptide, Alexa647 anti-mouse Fc.
Procedure: After washing each sample with 1 ml of a FACS buffer, a F(ab′)2 antibody (Jackson ImmunoResearch, USA) that specifically recognizes Alexa647 (red fluorescence)-conjugated mouse Fc (Jackson ImmunoResearch, USA) was diluted 1:600 in 100 μl of a FACS buffer, followed by reaction at 4° C. for 30 minutes.
After completion of pulsing, the cells were washed with a FACS buffer and centrifuged at 1300 rpm for 3 minutes to remove the supernatant. […] After washing each sample with 1 ml of a FACS buffer, a F(ab′)2 antibody that specifically recognizes Alexa647 (red fluorescence)-conjugated mouse Fc was diluted 1:600 in 100 μl of a FACS buffer, followed by reaction at 4° C. for 30 minutes.

B1: TCR-like antibody H9 #1 (IgG form, mouse IgG2a / mouse kappa) (antibody, V domains shown)
VH: EVQLVQSGAEVKKPGSSVKVSCKASGGTFSSYAISWVRQAPGQGLEWMGGIIPIFGTANYAQKFQGRVTITADESTSTAYMELSSLRSEDTAVYYCARGDLYYYDSSGYPLWYMDYWGQGTLVTVSS
VL: ETTLTQSPGTLSLSPGERATLSCRASQSVSSSYLAWYQQKPGQAPRLVIYGASSRATGIPDRFSGSGSGTDFTLTISRLEPEDFAVYYCQDYSTYPAFTFGQGTKLEIR
notes: also called #1 clone in IgG form
For the molecule B1, the binding result is on record as “no binding (tested: 50 nM)” in assay [1] and “binds” in assay [2].

B2: TCR-like antibody H9 (chimeric full-length IgG, mouse IgG2a / mouse kappa) (antibody, V domains shown)
VH: EVQLVQSGAEVKKPGSSVKVSCKASGGTFSSYAISWVRQAPGQGLEWMGGIIPIFGTANYAQKFQGRVTITADESTSTAYMELSSLRSEDTAVYYCARGDLYYYDSSGYPRYYFDYWGQGTLVTVSS
VL: ETTLTQSPGTLSLSPGERATLSCRASQSVSSSYLAWYQQKPGQAPRLVIYGASSRATGIPDRFSGSGSGTDFTLTISRLEPEDFAVYYCQHYSTSPGFTFGQGTKLEIR
notes: also called H9 clone; H9 antibody
With B2, the figures for the binding result in assay [1] and in assay [3] were “no binding (tested: 50 nM)” and “binds”, respectively.

B3: TCR-like antibody H9 #1-30 (IgG form, mouse IgG2a / mouse kappa) (antibody, V domains shown)
VH: EVQLVQSGAEVKKPGSSVKVSCKASGGTFSSYAISWVRQAPGQGLEWMGSIIPIFGAAEYAQKFQGRVTITADESTSTAYMELSSLRSEDTAVYYCARGDLYYYDSSGYPLWYMDYWGQGTLVTVSS
VL: ETTLTQSPGTLSLSPGERATLSCRASQSVSSSYLAWYQQKPGQAPRLVIYGASSRPRGIPDRFSGSGSGTDFTLTISRLEPEDFAVYYCQDYSTYPAFTFGQGTKLEIR
Turning to B3, the binding result in assay [1] is given as “no binding (tested: 50 nM)”.

B4: TCR-like antibody H9 #1-17 (IgG form, mouse IgG2a / mouse kappa) (antibody, V domains shown)
VH: EVQLVQSGAEVKKPGSSVKVSCKASGGTFSSYAISWVRQAPGQGLEWMGSIIPIFGVAEYAHKFQGRVTITADESTSTAYMELSSLRSEDTAVYYCARGDLYYYDSSGYPLWYMDYWGQGTLVTVSS
VL: ETTLTQSPGTLSLSPGERATLSCRASQSVSSSYLAWYQQKPGQAPRLVIYGASTRPTGIPDRFSGSGSGTDFTLTISRLEPEDFAVYYCQDYSTYPAFTFGQGTKLEIR
With B4, the binding result in assay [1] is reported as “no binding (tested: 50 nM)”; in assay [2] it was “binds”.

B5: TCR-like antibody H9 #38 (IgG form, mouse IgG2a / mouse kappa) (antibody, V domains shown)
VH: EVQLVQSGAEVKKPGSSVKVSCKASGGTFSSYAISWVRQAPGQGLEWMGGIIPIFGTANYAQKFQGRVTITADESTSTAYMELSSLRSEDTAVYYCARGDLYYYDSSGYPWYYMDYWGQGTLVTVSS
VL: ETTLTQSPGTLSLSPGERATLSCRASQSVSSSYLAWYQQKPGQAPRLVIYGASSRATGIPDRFSGSGSGTDFTLTISRLEPEDFAVYYCQHSYAFPGFTFGQGTKLEIR
notes: also called #38 clone in IgG form
Consider B5, for which, in assay [4], the binding result is reported as “binds”.
